Reference: patent publication US12599665B2, “Gene fusions for control of genetically modified cells” (A2 Biotherapeutics, Inc., priority 2020, dated 2026)

B1: C150: truncated BID (tBID), a potent apoptosis inducer; construct A tBID lacking a LBD (protein, UniProt P55957 61-195, looked up)
BH3-interacting domain death …: GNRSSHSRLGRIEADSESQEDIIRNIARHLAQVGDSMDRSIPPGLVNGLALQLRNTSRSEEDRNRDLATALEQLLQAYPRDMEKEKTMLVLALLLAKKVASHTPSLLRDVFHTTVNFINQNLRTYVRSLARNGMD
modifications: BH3-interacting domain death agonist p15
B2: D-ESR1: fusion protein SEQ ID NO: 5; tBID helices α3, α6 and α7 fused to the N-terminus of ESR1 LBD (protein)
chain: SQEDIIRNIARHLAQVGDSMDRSIPPGEKTMLVLALLLAKKVASHTPSLLRDVFHTTVNFINQNLGSKKNSLALSLTADQMVSALLDAEPPILYSEYDPTRPFSEASMMGLLTNLADRELVHMINWAKRVPGFVDLTLHDQVHLLECAWLEILMIGLVWRSMEHPGKLLFAPNLLLDRNQGKCVEGMVEIFDMLLATSSRFRMMNLQGEEFVCLKSIILLNSGVYTFLSSTLKSLEEKDHIHRVLDKITDTLIHLMAKAGLTLQQQHQRLAQLLLILSHIRHMSNKGMEHLYSMKCKNVVPLYDLLLEMLDAHRLHAPT
modifications: tBID fusion protein C3454 (D-ESR1)
notes: tBID helices α3, α6 and α7 fused to the N-terminus of ESR1 LBD
B3: C-ESR1: fusion protein SEQ ID NO: 7; tBID helices α3, α4, α5 and α6 fused to the N-terminus of ESR1 LBD (protein)
chain: MSQEDIIRNIARHLAQVGDSMDRSIPPGLVNGLALQLRNTSRSEEDRNRDLATALEQLLQAYPRDMEKEKTMLVLALLLAKKVASHTPGSKKNSLALSLTADQMVSALLDAEPPILYSEYDPTRPFSEASMMGLLTNLADRELVHMINWAKRVPGFVDLTLHDQVHLLECAWLEILMIGLVWRSMEHPGKLLFAPNLLLDRNQGKCVEGMVEIFDMLLATSSRFRMMNLQGEEFVCLKSIILLNSGVYTFLSSTLKSLEEKDHIHRVLDKITDTLIHLMAKAGLTLQQQHQRLAQLLLILSHIRHMSNKGMEHLYSMKCKNVVPLYDLLLEMLDAHRLHAPT
modifications: tBID fusion protein C3452 (C-ESR1)
notes: tBID helices α3, α4, α5 and α6 fused to the N-terminus of ESR1 LBD
B4: ESR1-C: fusion protein SEQ ID NO: 6; ESR1 LBD fused to N-terminus of tBID truncation C (protein)
chain: MKKNSLALSLTADQMVSALLDAEPPILYSEYDPTRPFSEASMMGLLTNLADRELVHMINWAKRVPGFVDLTLHDQVHLLECAWLEILMIGLVWRSMEHPGKLLFAPNLLLDRNQGKCVEGMVEIFDMLLATSSRFRMMNLQGEEFVCLKSIILLNSGVYTFLSSTLKSLEEKDHIHRVLDKITDTLIHLMAKAGLTLQQQHQRLAQLLLILSHIRHMSNKGMEHLYSMKCKNVVPLYDLLLEMLDAHRLHAPTGSSQEDIIRNIARHLAQVGDSMDRSIPPGLVNGLALQLRNTSRSEEDRNRDLATALEQLLQAYPRDMEKEKTMLVLALLLAKKVASHTP
modifications: tBID fusion protein C3443 (ESR1-C)
B5: ESR1-D: fusion protein SEQ ID NO: 4; ESR1 LBD fused to N-terminus of tBID with Bid α3, α6 and α7 helices (protein)
chain: MKKNSLALSLTADQMVSALLDAEPPILYSEYDPTRPFSEASMMGLLTNLADRELVHMINWAKRVPGFVDLTLHDQVHLLECAWLEILMIGLVWRSMEHPGKLLFAPNLLLDRNQGKCVEGMVEIFDMLLATSSRFRMMNLQGEEFVCLKSIILLNSGVYTFLSSTLKSLEEKDHIHRVLDKITDTLIHLMAKAGLTLQQQHQRLAQLLLILSHIRHMSNKGMEHLYSMKCKNVVPLYDLLLEMLDAHRLHAPTGSSQEDIIRNIARHLAQVGDSMDRSIPPGEKTMLVLALLLAKKVASHTPSLLRDVFHTTVNFINQNL
modifications: tBID fusion protein C3445 (ESR1-D)
notes: ESR1 LBD fused to N-terminus of tBID with Bid α3, α6 and α7 helices
B6: full length Bid: full length Bid expressed alone in HEK293T cells (protein, UniProt P55957 1-195, looked up)
chain: MDCEVNNGSSLRDECITNLLVFGFLQSCSDNSFRRELDALGHELPVLAPQWEGYDELQTDGNRSSHSRLGRIEADSESQEDIIRNIARHLAQVGDSMDRSIPPGLVNGLALQLRNTSRSEEDRNRDLATALEQLLQAYPRDMEKEKTMLVLALLLAKKVASHTPSLLRDVFHTTVNFINQNLRTYVRSLARNGMD
modifications: full-length
notes: full length Bid expressed alone in HEK293T cells

Columns and labels:
[1] = system: HEK293T cells; experiment: Annexin V apoptosis assay in transfected HEK293T cells +/- 4OHT; format: cell-based, Human; details: for cell death observed: 1 uM 4OHT or solvent control; for inducibility of apoptosis with 4OHT: 200 nM or 1 uM 4OHT, ~18-24 hours
Method: (§1) Human Embryonic Kidney (HEK) 293T cells were transfected with 1 ug per 1E6 cells using Lipofectamine 3000 and incubated in DMEM+10% FBS+1% Pen/Strep media for 4 hours before adding 1 uM 4-hydroxytamoxifen (+4OHT) or solvent control (No 4OHT). The cells were incubated with 4OHT for 18-24 hours. The cells were then stained with Annexin V to detect apoptotic cells, as well as DAPI to detect dead cells.
HEK293T cells were transfected with varying amounts of DNA of a vector control (pLenti), with construct A tBID (lacking a LBD, C150, see FIG. 5B), or with C-ESR1 or D-ESR1 (FIG. 10, bottom), and assayed for apoptosis using either 200 nM OHT or 1 μM 4OHT.
To determine the effect of amount of DNA as well as 4OHT concentration on apoptosis induction, we titrated both the amount of DNA (2, 3, or 6 ug DNA per 1E6 cells) and the concentration of 4OHT. 500,000 cells HEK293T cells were plated in a 24-well plate. ˜2 hours after plating, appropriate amounts of DNA were transfected using Lipofectamine 3000 and incubated for 4 hours. Either ethanol solvent control, 200 nM 4OHT, or 1 uM 4OHT was added to the transfected cells then incubated for ˜18-24 hours. The cells were then stained as in Example 4. Intriguingly, C-ESR1 was not inducible in HEK293 Ts, unlike in Jurkat cells (Example 6, FIGS. 7 and 11A-B).

[2] = system: primary T cells; experiment: Caspase-3/7 Green time course of 4OHT-mediated death in transduced primary T cells; format: cell-based
Method: To characterize tamoxifen-induced killing activity in transfected Jurkat cells over time, Jurkat cells were transfected with 1 ug DNA per 1 E6 cells as described previously above. 24 hours post-transfection, Jurkat cells were harvested and resuspended in complete RPMI media containing 10% FBS, 1% Pen/Strep, and 5 uM Caspase-3/7 Green Reagent (Essen Bioscience 4440). The resuspended cells were plated onto poly-L-ornithine treated 384-well plates and left at room temperature for 30 minutes. Then, RPMI+10% FBS+1% Pen/Strep+5 uM Caspase-3/7 Green Reagent containing appropriate 2×4OHT or EtOH was added to the cells. Induction of apoptosis was measured using the Caspase-3/7 dye, which couples caspase-3/7 recognition motif with a DNA intercalating dye. Cells turn green if and only if caspase-3/7-mediated apoptosis occurs. The cells were imaged using the IncuCyte S3 Live-Cell Analysis System.
Primary T cells transduced with D-ESR1 were prepared similarly to Jurkat cells in Example 9 and 4OHT-mediated death was measured using the Caspase-3/7 Green Reagent as described in Example 9.

[3] = system: Jurkat cells; experiment: Annexin V / PI apoptosis assay in transfected Jurkat cells +/- 4OHT; format: cell-based; details: for inducible apoptosis with 4OHT / background apoptosis / killing: 1 ug DNA per 1E6 cells; for inducible apoptosis with 4OHT: 1 uM 4OHT vs solvent control, 18-24 hrs; for background apoptosis / killing: solvent control; for induction of apoptosis with 4OHT / background cell death: 2 ug DNA per 1E6 cells, 20 hours; for induction of apoptosis with 4OHT: 200 nM or 1 uM 4OHT; for background cell death: ethanol solvent control
Method: as §1, with “Jurkat immortalized T lymphocytes” for “Human Embryonic Kidney (HEK) 293T cells”, “Neon electroporation” for “Lipofectamine 3000”, “RPMI+20% FBS+0.1%” for “DMEM+10% FBS+1%”, “propidium iodide (PI)” for “DAPI”
Jurkat cells were transfected with 1 ug of DNA per 1E6 cells using Neon electroporation, treated +/−4OHT for 18-24 hrs, and stained with Annexin V to detect apoptotic cells, as well as PI to detect dead cells (FIG. 5A).
One possibility is that the BID α3 and α6 helices are necessary and sufficient for tBID function. Therefore, we made various truncations that included α3 and α6, as well as various other helices. Jurkat cells were transfected with 1 ug DNA per 1E6 cells, treated with 4OHT or solvent control, then stained as in Example 4. […] One exception was the ESR-D tBID fusion construct, which has the Bid α3, α6 and α7 helices (FIG. 6). 0.3 uM staurosporine (STP) and DMSO solvent control were included as controls.
Jurkat cells were transfected with 1 ug DNA per 1E6 cells, treated with 4OHT or solvent control, then stained as in Example 4. The fold change in apoptosis upon 4OHT addition was determined by dividing the percent Annexin V positive cells treated with 4OHT by the percent Annexin V positive cells treated with a solvent control (FIG. 8). The fold change was calculated from one experiment. As electroporation of empty vector always results in some background death of cells, percent Annexin V positive cells of pLenti was used as the background and subtracted from total percentage to obtain “background subtracted” fold change values.
To determine the effect of 4OHT concentration on apoptosis induction in Jurkat cells, Jurkat cells were transfected with 2 ug DNA per 1E6 cells. 4 hours post-transfection, either ethanol solvent control, 200 nM 4OHT, or 1 uM 4OHT was added to the transfected cells then incubated for 20 hours. The cells were then stained with Annexin V and PI to measure cell death.

[4] = system: primary T cells; experiment: Annexin V / PI apoptosis assay in transduced primary T cells +/- 4OHT; format: cell-based; details: lentiviral transduction, 20 hours
Method: To characterize tBID-ESR1 safety switch function in primary T cells, D504C cells were transduced with lentiviral constructs containing either C-ESR1 or D-ESR1. The cells were maintained and expanded in media containing 300 IU/mL IL-2. To induce apoptosis, 1E6 cells were resuspended in 1 mL of LymphoONE media containing 1% human serum and 1 uM 4OHT. As a solvent control, same volume of ethanol was added to the cells. 20 hours after 4OHT addition, cells were stained with Annexin V and PI to measure cell death as described in Example 9.

[5] = HEK293T, 1 ug per 1E6 cells, 18-24 hours
[6] = HEK293T, 2, 3, or 6 ug DNA per 1E6 cells

Molecule	cell death observed [1, 5]	inducible apoptosis with 4OHT [3]	background apoptosis / killing [3]	induction of apoptosis with 4OHT [3]	inducibility of apoptosis with 4OHT [1, 6]	background cell death [3]	further results
B1	significant death						Annexin V+ cells ([1]; HEK293T, 1 ug per 1E6 cells, regardless of the presence of tamoxifen, 18-24 hours): 60-70%
B2		showed inducible apoptosis	low background apoptosis	consistently induced apoptosis	increases the window of induction		background apoptosis, Caspase-3/7 Green Reagent [2]: low background; inducible apoptosis, Caspase-3/7 Green Reagent ([2]; 4OHT): inducible apoptosis is seen; inducibility of apoptosis with 4OHT ([1]; HEK293T, 2, 3, or 6 ug DNA per 1E6 cells, listed as C3454): retained activity across cell types; background apoptosis ([1]; HEK293T, 2, 3, or 6 ug DNA per 1E6 cells, ethanol solvent control): does not increase background; inducible killing with 4OHT, Annexin V and PI ([4]; 1 uM 4OHT): greatest inducible killing; background cell death, Annexin V and PI ([4]; ethanol solvent control): low background
B3		showed inducible apoptosis			not inducible		
B4						relatively high background levels of cell death	
B5		high inducibility	low background killing	robustly induced at either 200 nM or 1 uM 4OHT		relatively high background levels of cell death	
B6	negligible death						
